Experimental findings from patent US20230265179A1 (TWIST BIOSCIENCE, published 2023) are described below.

Usually Kd stands for the constant that tells how readily two partners part at equilibrium. Read a low Kd as a tighter complex. What is called koff is the rate constant with which the complex falls apart. Read a low koff as a long-lived complex. As usually defined, the kon is the rate constant with which the complex forms. The low end stands for slow association, the high end for fast association.

Assay [1] concerns the target T1, CD40L (UniProt P29965 113-261, limits assumed).
T1 construct: SPR analyte
T1 sequence (looked up): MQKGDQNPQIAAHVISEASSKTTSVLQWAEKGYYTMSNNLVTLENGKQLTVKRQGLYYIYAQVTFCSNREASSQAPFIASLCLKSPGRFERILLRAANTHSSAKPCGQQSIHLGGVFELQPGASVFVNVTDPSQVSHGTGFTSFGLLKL
In words: SPR (Carterra LSA), antibody amine-coupled, 1:1 model.
Experimental: SPR experiments were performed on a Carterra LSA SPR biosensor equipped with a HC30M chip at 25° C. in HBS-TE. Antibodies were diluted to 10 μg/mL and amine-coupled to the sensor chip by EDC/NHS activation, followed by ethanolamine HCl quenching. Increasing concentrations of analyte were flowed over the sensor chip in HBS-TE with 0.5 mg/mL BSA with 5-minute association and 15-minute dissociation. Following each injection cycle the surface was regenerated with 2× 30-second injections of IgG elution buffer (Thermo). Data were analyzed in Carterra's Kinetics Tool software with 1:1 binding model.

Assay [2] deals with T2, CD40L over-expressed on Expi293 cells (UniProt P29965 1-261, limits assumed).
T2 construct: whole, on cells; also called cytokine over-expressing Expi293 cells
T2 sequence (looked up): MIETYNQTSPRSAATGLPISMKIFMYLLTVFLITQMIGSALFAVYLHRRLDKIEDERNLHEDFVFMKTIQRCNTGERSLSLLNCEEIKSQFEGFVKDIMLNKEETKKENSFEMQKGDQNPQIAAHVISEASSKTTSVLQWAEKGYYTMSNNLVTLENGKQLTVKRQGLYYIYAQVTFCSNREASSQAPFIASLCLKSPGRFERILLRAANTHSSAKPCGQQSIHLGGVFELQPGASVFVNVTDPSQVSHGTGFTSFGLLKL
Briefly: flow cytometry, 100 nM antibody, CD40L-Expi293 vs parent Expi293 cells.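 Further: ratio is the mean fluorescence intensity on CD40L-overexpressing Expi293 cells divided by the mean fluorescence intensity on parental Expi293 cells.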 For orientation: Flow cytometry measures light scatter and fluorescence of single cells or particles in a stream.
Experimental: All incubations and washes were in buffer containing PBS+1% BSA. MFI Ratio is defined by the mean fluorescence intensity (MFI) of the cytokine over-expressing Expi293 cell over the Expi293 parent cell. […] EC50 was calculated in GraphPad Prism.

B1: CD40L-29 (VHH)
VHH: EVQLVESGGGLVQPGGSLRLSCAASGRTFSSYAMGWFRQAPGKEREFVAVIYSSDGSTLYADSVKGRFTISADNSKNTAYLQMNSLKPEDTAVYYCAAEHTLGRPSRSQINYLWGQGTLVTVSS
In assay [1], B1 gave a Kd of 33.6 nM, a koff of 0.000801 s⁻¹ and an on-rate constant (kon) of 23800 M⁻¹ s⁻¹. For the same molecule, the “100 nM FACS (MFI Ratio)” value in assay [2] is 4.7 ratio.

B2: CD40L-34 (VHH)
VHH: EVQLVESGGGLVQPGGSLRLSCAASGRTISNAAMGWFRQAPGKEREFVAAISFRGDSAIYADSVKGRFTISADNSKNTAYLQMNSLKPEDTAVYYCARDAAGDYYYNLDVWGQGTLVTVSS
Regarding B2, in assay [1], the affinity, expressed as Kd, was 9.87 nM; the koff is 0.000637 s⁻¹; the association rate constant (kon) stood at 64500 M⁻¹ s⁻¹. Moreover, the “100 nM FACS (MFI Ratio)” value in assay [2] is 76.7 ratio.

B3: CD40L-25 (VHH)
VHH: EVQLVESGGGLVQPGGSLRLSCAASGFTFSRYEMGWFRQAPGKEREFVAAVTEDGSINYADSVKGRFTISADNSKNTAYLQMNSLKPEDTAVYYCAAVYVSTWGNGYDWGQGTLVTVSS
In the case of B3, in assay [1], binding was put at a Kd of 1.2 nM, the koff was 0.000176 s⁻¹ and the kon worked out at 147000 M⁻¹ s⁻¹. In assay [2], the “100 nM FACS (MFI Ratio)” value worked out at 93.2 ratio.

B4: CD40L-57 (VHH)
VHH: EVQLVESGGGLVQPGGSLRLSCAASGFTFSRYEMGWFRQAPGKEREFVATITEGGARNYADSVKGRFTISADNSKNTAYLQMNSLKPEDTAVYYCAAVYVSTWGNGYDWGQGTLVTVSS
In assay [1], B4 came in with a Kd of 2.92 nM, a dissociation rate constant (koff) of 0.000769 s⁻¹ and a kon of 263000 M⁻¹ s⁻¹. Besides, the “100 nM FACS (MFI Ratio)” value in assay [2] came to 64 ratio.

B5: CD40L-19 (VHH)
VHH: EVQLVESGGGLVQPGGSLRLSCAASGTITSAVFMGWFRQAPGKEREWVATISSHGLPVYADSVKGRFTISADNSKNTAYLQMNSLKPEDTAVYYCAIDEGMDYDGNFYDWGQGTLVTVSS
B5: in assay [1], the affinity, expressed as Kd, was 6.72 nM; the dissociation rate constant (koff) was determined as 0.00119 s⁻¹; the kon worked out at 177000 M⁻¹ s⁻¹. Also, the “100 nM FACS (MFI Ratio)” value in assay [2] was 1.9 ratio.

B6: CD40L-21 (VHH)
VHH: EVQLVESGGGLVQPGGSLRLSCAASGRIFSTYFMGWFRQAPGKEREFVAASYTGGSGGSTVYADSVKGRFTISADNSKNTAYLQMNSLKPEDTAVYYCAAWLNGGNRWGQGTLVTVSS
In assay [1], B6 showed a dissociation constant (Kd) of 53.8 nM, a koff of 0.00083 s⁻¹ and an on-rate (kon) of 15400 M⁻¹ s⁻¹. In assay [2], the “100 nM FACS (MFI Ratio)” value was found to be 99.2 ratio.

B7: CD40L-20 (VHH)
VHH: EVQLVESGGGLVQPGGSLRLSCAASGVITLDSNAMGWFRQAPGKEREFVAAITWDGGYTRYADSVKGRFTISADNSKNTAYLQMNSLKPEDTAVYYCAAEATFPTWNRGSEADYDWGQGTLVTVSS
In assay [1], B7 yielded a Kd of 1.25 nM, a koff of 0.000271 s⁻¹ and a kon of 217000 M⁻¹ s⁻¹. Moreover, the “100 nM FACS (MFI Ratio)” value in assay [2] turned out to be 24.6 ratio.

B8: CD40L-28 (VHH)
VHH: EVQLVESGGGLVQPGGSLRLSCAASGVTVDYSGMGWFRQAPGKEREFVSAISSYSGNTYYADSVKGRFTISADNSKNTAYLQMNSLKPEDTAVYYCAAAYGGGLYRDPRSYDWGQGTLVTVSS
As for B8, in assay [1], the Kd worked out at 2.87 nM, the koff worked out at 0.000445 s⁻¹ and the kon was determined as 155000 M⁻¹ s⁻¹. In assay [2], the “100 nM FACS (MFI Ratio)” value is 41.9 ratio.

B9: CD40L-16 (VHH)
VHH: EVQLVESGGGLVQPGGSLRLSCAASGRIFSTYFMGWFRQAPGKEREWISTVYSNGHTYYADSVKGRFTISADNSKNTAYLQMNSLKPEDTAVYYCAAWLNGGNRWGQGTLVTVSS
In assay [1], B9 displayed a Kd of 7.93 nM, a koff of 0.000278 s⁻¹ and an on-rate (kon) of 35100 M⁻¹ s⁻¹. Also, in assay [2], the “100 nM FACS (MFI Ratio)” value was 47.8 ratio.

B10: CD40L-52 (VHH)
VHH: EVQLVESGGGLVQPGGSLRLSCAASGRIFSTYFMGWFRQAPGKEREWVSTIYSNGTPAYADSVKGRFTISADNSKNTAYLQMNSLKPEDTAVYYCAAWLNGGNRWGQGTLVTVSS
In assay [1], B10 yielded a Kd of 7.56 nM, an off-rate constant (koff) of 0.000453 s⁻¹ and an on-rate (kon) of 59900 M⁻¹ s⁻¹. The “100 nM FACS (MFI Ratio)” value in assay [2] turned out to be 91.9 ratio.

B11: CD40L-22 (VHH)
VHH: EVQLVESGGGLVQPGGSLRLSCAASGVTLDDYAMGWFRQAPGKERELVAAITNGGITTHYADSVKGRFTISADNSKNTAYLQMNSLKPEDTAVYYCAADVGPTVKWGQGTLVTVSS
For the molecule B11, in assay [1], the Kd was 1.02 nM, the dissociation rate constant (koff) is 0.000394 s⁻¹ and the kon is 387000 M⁻¹ s⁻¹. In assay [2], the “100 nM FACS (MFI Ratio)” value worked out at 47.6 ratio.

B12: CD40L-59 (VHH)
VHH: EVQLVESGGGLVQPGGSLRLSCAASGFTLDYYAMGWFRQAPGKERELVASISNGGLSTYYADSVKGRFTISADNSKNTAYLQMNSLKPEDTAVYYCAADVGPTVKWGQGTLVTVSS
In assay [1], B12 showed a Kd of 1.27 nM, a koff of 0.000315 s⁻¹ and a kon of 248000 M⁻¹ s⁻¹. The “100 nM FACS (MFI Ratio)” value in assay [2] amounted to 66.7 ratio.

B13: CD40L-35 (VHH)
VHH: EVQLVESGGGLVQPGGSLRLSCAASGLTFSSYWMGWFRQAPGKERELVASITDGGSTNYADSVKGRFTISADNSKNTAYLQMNSLKPEDTAVYYCAVQVNGIWAWGQGTLVTVSS
Take B13: in assay [1], the Kd is no more than 0.0842 nM, the koff is no more than 1e-05 s⁻¹ and the on-rate constant (kon) was determined as 119000 M⁻¹ s⁻¹. In addition, the “100 nM FACS (MFI Ratio)” value in assay [2] is 29.5 ratio.

B14: CD40L-15 (VHH)
VHH: EVQLVESGGGLVQPGGSLRLSCAASGFTFDDYDMGWFRQAPGKERELVASITSGGSTNYADSVKGRFTISADNSKNTAYLQMNSLKPEDTAVYYCAIPHGIDLYTFDWGQGTLVTVSS
In assay [1], B14 came in with a Kd of 1.29 nM, an off-rate (koff) of 0.000384 s⁻¹ and a kon of 299000 M⁻¹ s⁻¹. The “100 nM FACS (MFI Ratio)” value in assay [2] was 29 ratio.

B15: CD40L-12 (VHH)
VHH: EVQLVESGGGLVQPGGSLRLSCAASGRSFSTYTMGWFRQAPGKEREFVAVIYTSDGANLYADSVKGRFTISADNSKNTAYLQMNSLKPEDTAVYYCAAETYGSGSSLMSEYDWGQGTLVTVSS
For the molecule B15, in assay [1], the Kd was 1.03 nM, the koff is 0.000266 s⁻¹ and the kon amounted to 257000 M⁻¹ s⁻¹. Moreover, in assay [2], the “100 nM FACS (MFI Ratio)” value amounted to 46.2 ratio.

B16: CD40L-30 (VHH)
VHH: EVQLVESGGGLVQPGGSLRLSCAASGNIFRINAMGWFRQAPGKEREFVAVIYSSDGSTLYADSVKGRFTISADNSKNTAYLQMNSLKPEDTAVYYCAAEPYGSGSSLISEYDWGQGTLVTVSS
Consider B16, for which, in assay [1], binding was put at a Kd of 4.04 nM, the koff came to 0.000633 s⁻¹ and the on-rate constant (kon) was 157000 M⁻¹ s⁻¹. Besides, the “100 nM FACS (MFI Ratio)” value in assay [2] was 24.3 ratio.

B17: CD40L-18 (VHH)
VHH: EVQLVESGGGLVQPGGSLRLSCAASGSISSVNAMGWFRQAPGKEREFIAVIYWRDGSSLYADSVKGRFTISADNSKNTAYLQMNSLKPEDTAVYYCAAEPYGSGSSLISEYDWGQGTLVTVSS
As to B17, in assay [1], binding was characterised by a dissociation constant (Kd) of 1.77 nM, the koff stood at 0.000391 s⁻¹ and the kon turned out to be 221000 M⁻¹ s⁻¹. For the same molecule, in assay [2], the “100 nM FACS (MFI Ratio)” value came to 29.8 ratio.

B18: CD40L-27 (VHH)
VHH: EVQLVESGGGLVQPGGSLRLSCAASGSISSIHAMGWFRQAPGKEREFIAVIYWRDGSSLYADSVKGRFTISADNSKNTAYLQMNSLKPEDTAVYYCAAEPYGSGSSLMSEYDWGQGTLVTVSS
In assay [1], B18 showed a Kd of 0.749 nM, an off-rate (koff) of 0.000155 s⁻¹ and a kon of 207000 M⁻¹ s⁻¹. In assay [2], the “100 nM FACS (MFI Ratio)” value was 44.9 ratio.

B19: CD40L-17 (VHH)
VHH: EVQLVESGGGLVQPGGSLRLSCAASGRTSNIYAMGWFRQAPGKEREFVAVIYSSDGSTLYADSVKGRFTISADNSKNTAYLQMNSLKPEDTAVYYCAAEPYGSGSSLMSEYDWGQGTLVTVSS
In assay [1], B19 gave a Kd of 2.32 nM, a koff of 0.000363 s⁻¹ and an on-rate constant (kon) of 157000 M⁻¹ s⁻¹. Also, the “100 nM FACS (MFI Ratio)” value in assay [2] was 45.6 ratio.

B20: CD40L-24 (VHH)
VHH: EVQLVESGGGLVQPGGSLRLSCAASGGAFSVYAMGWFRQAPGKEREFLASISGSGGSTYYADSVKGRFTISADNSKNTAYLQMNSLKPEDTAVYYCARDGGTYGMDVWGQGTLVTVSS
For B20, in assay [1], the Kd worked out at 5.74 nM, the koff came out at 0.000824 s⁻¹ and the kon was determined as 143000 M⁻¹ s⁻¹. Moreover, the “100 nM FACS (MFI Ratio)” value in assay [2] was determined as 42.7 ratio.

B21: CD40L-36 (VHH)
VHH: EVQLVESGGGLVQPGGSLRLSCAASGFSLDDYAMGWFRQAPGKEREFVASVNWSGKDTYYADSVKGRFTISADNSKNTAYLQMNSLKPEDTAVYYCARDGGTYGMDVWGQGTLVTVSS
Turning to B21, in assay [1], the equilibrium dissociation constant (Kd) amounted to 0.819 nM, the koff is 0.000353 s⁻¹ and the kon came to 431000 M⁻¹ s⁻¹. Moreover, the “100 nM FACS (MFI Ratio)” value in assay [2] came to 59.2 ratio.

B22: CD40L-33 (VHH)
VHH: EVQLVESGGGLVQPGGSLRLSCAASGNIFINNAMGWFRQAPGKEREFVASIEWDGGGAYYADSVKGRFTISADNSKNTAYLQMNSLKPEDTAVYYCARDGGTYGMDVWGQGTLVTVSS
As to B22, in assay [1], binding was put at a Kd of 2.63 nM, the koff came to 0.000546 s⁻¹ and the kon amounted to 208000 M⁻¹ s⁻¹. For the same molecule, in assay [2], the “100 nM FACS (MFI Ratio)” value amounted to 74.1 ratio.
